Patent publication US20200339694A1 (CYTOMX THERAPEUTICS, published 2020)

Molecular target: T1, Av1 antibody
T1 construct: also called parental AV1 antibody; anti-IL6R antibody
Assay: FACS of the peptide displayed on cells

T1 sequence (heavy, as listed by the source, chain 1 of 2): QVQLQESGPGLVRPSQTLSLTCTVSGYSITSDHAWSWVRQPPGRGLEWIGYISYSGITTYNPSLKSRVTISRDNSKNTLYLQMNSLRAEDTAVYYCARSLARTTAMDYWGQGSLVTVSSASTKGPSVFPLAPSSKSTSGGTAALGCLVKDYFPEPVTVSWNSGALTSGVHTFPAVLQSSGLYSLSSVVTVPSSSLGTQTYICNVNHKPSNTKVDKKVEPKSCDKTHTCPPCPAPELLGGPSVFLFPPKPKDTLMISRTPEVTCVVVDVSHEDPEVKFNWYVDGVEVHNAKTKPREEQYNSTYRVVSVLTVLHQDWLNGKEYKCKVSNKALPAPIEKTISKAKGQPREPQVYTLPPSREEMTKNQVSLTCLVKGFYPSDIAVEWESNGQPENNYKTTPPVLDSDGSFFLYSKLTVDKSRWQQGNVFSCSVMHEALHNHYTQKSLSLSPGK
T1 sequence (light, as listed by the source, chain 2 of 2): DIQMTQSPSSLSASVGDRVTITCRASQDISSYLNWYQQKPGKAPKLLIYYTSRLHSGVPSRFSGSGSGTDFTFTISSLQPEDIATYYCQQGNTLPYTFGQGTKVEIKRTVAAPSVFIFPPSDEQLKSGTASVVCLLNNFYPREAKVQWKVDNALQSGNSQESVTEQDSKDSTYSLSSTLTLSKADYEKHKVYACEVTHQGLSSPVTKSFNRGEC

binding result | Binder
binds | PGAFDIPFPAHWVPNT (also called 4280; parental peptide) [Peptide 2 (SEQ ID NO: 34)]
binds | YRSCNWNYVSIFLDC (also called 4278; parental peptide) [Peptide 1 (SEQ ID NO: 33)]
